The source of these data is publication PMC9008036, “Structural and molecular determinants for the interaction of ExbB from Serratia marcescens and HasB, a TonB paralog” (Communications Biology, 2022).

Experiment [1] has as its target ExbBSm, untagged, co-expressed and co-purified with ExbDSm-His6 (from pBADExbBDSmHis6) (Serratia marcescens). Nature of the experiment: cryo-EM structure; purified ExbBDSm complex (His6 on ExbD) in LMNG micelles, ca. 1 mg/mL, 20 mM Tris pH 8.0, 100 mM NaCl, 0.0015% LMNG; single-particle, C1, 3.96 Å.
Experiment [2] addresses ExbBSm, C-terminally His6-tagged (from pBADExbBSmHis6), purified alone (Serratia marcescens). Nature of the experiment: cryo-EM structure; purified ExbBSm-His6 alone in LMNG micelles, ca. 1 mg/mL, 20 mM Tris pH 8.0, 100 mM NaCl, 0.0015% LMNG; single-particle, C5 symmetry, 3.1 Å.
The target of experiment [3] is T1, C-terminal periplasmic domain of HasB, HasBCTD, residues 133-263 (Serratia marcescens, UniProt Q79AD1 133-263, 15N-labeled).
T1 construct: HasB, TonB paralog of Serratia marcescens, C-terminal periplasmic domain, residues 133-263; also called C-terminal globular domain of HasB
T1 sequence (looked up): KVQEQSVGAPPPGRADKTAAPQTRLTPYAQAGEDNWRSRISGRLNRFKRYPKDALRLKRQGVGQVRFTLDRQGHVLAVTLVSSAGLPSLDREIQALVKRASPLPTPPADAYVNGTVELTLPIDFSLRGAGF
The experiment can be described thus: NMR titration; 1H-15N HSQC of 0.15 mM 15N-labeled HasBCTD, 50 mM sodium phosphate pH 7, 50 mM NaCl, 293 K, 600 MHz; peptide added at 2:1 and 10:1 ratios; chemical shift perturbations. To be noted: both partners purified.

“ExbDSm, C-terminally His6-tagged (from pBADExbBDSmHis6) (natural protein)”: the stoichiometry N (ExbD monomers per ExbB pentamer) in experiment [1] was determined as 2. Take “ExbBSm, C-terminally His6-tagged (from pBADExbBSmHis6), purified alone (natural protein)”: in experiment [2], the stoichiometry N (as a rule, a count of units in the complex or per binding partner) worked out at 5. The molecule “ExbBSm, untagged, co-expressed and co-purified with ExbDSm-His6 (from pBADExbBDSmHis6) (natural protein)” yielded a stoichiometry N in experiment [1] of 5.

B1: ExbBSm 1-44 synthetic peptide (periplasmic extension of ExbBSm) (peptide)
peptide: APAANPAVTESVAPTTAPAPAAAAPESITPVNPAPTIQPPETRG
notes: ExbB of Serratia marcescens Db11 (SMDB11_3480), periplasmic N-terminal extension, residues 1-44. numbers count on: the mature protein; also called periplasmic peptide of ExbBSm residues 1-44; periplasmic fragment of ExbBSm; source: synthetic peptide (Proteogenix)
Regarding B1, in experiment [3], the binding result is recorded as “binds”.
